Numbering of substitutions follows the chain as printed.

What all share (assay): fluorescence polarization
What all share (details): 50 mM HEPES-KOH pH 7.5, 10 mM potassium acetate, 2 mM beta-mercaptoethanol, 0.1 mg/mL BSA, 5 mM MgCl2, 2 nM DNA, temperature not stated

Data set [1] addresses T1, pol eta core R334G R334G (Homo sapiens) (UniProt Q9Y253).
T1 sequence: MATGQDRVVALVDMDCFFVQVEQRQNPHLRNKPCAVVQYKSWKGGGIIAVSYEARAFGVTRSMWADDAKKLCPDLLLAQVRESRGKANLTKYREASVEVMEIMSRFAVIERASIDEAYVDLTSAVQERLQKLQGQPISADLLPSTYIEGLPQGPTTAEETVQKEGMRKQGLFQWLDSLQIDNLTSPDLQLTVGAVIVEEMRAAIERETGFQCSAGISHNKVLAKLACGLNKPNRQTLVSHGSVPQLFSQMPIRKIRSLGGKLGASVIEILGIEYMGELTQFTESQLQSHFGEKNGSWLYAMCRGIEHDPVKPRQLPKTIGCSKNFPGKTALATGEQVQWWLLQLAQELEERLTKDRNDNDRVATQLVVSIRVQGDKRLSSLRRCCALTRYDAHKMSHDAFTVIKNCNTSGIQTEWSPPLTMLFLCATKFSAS

Data set [2] has as its target T2, pol eta core I272T I272T (Homo sapiens) (UniProt Q9Y253).
T2 sequence: T1 sequence with I272T, G334R

Data set [3] addresses T3, pol eta core S296F S296F (Homo sapiens) (UniProt Q9Y253).
T3 sequence: T1 sequence with S296F, G334R

Data set [4] concerns the target T4, pol eta core R167Q R167Q (Homo sapiens) (UniProt Q9Y253).
T4 sequence: T1 sequence with R167Q, G334R

Data set [5] addresses T5, DNA polymerase eta core, wild-type (Homo sapiens) (UniProt Q9Y253).
T5 sequence: T1 sequence with G334R

Data set [6] has as its target T6, pol eta core G209V G209V (Homo sapiens) (UniProt Q9Y253).
T6 sequence: T1 sequence with G209V, G334R

The target of data set [7] is T7, pol eta core T329I T329I (Homo sapiens) (UniProt Q9Y253).
T7 sequence: T1 sequence with T329I, G334R

For data set [8], the target named is T8, pol eta core I147N I147N (Homo sapiens) (UniProt Q9Y253).
T8 sequence: T1 sequence with I147N, G334R

Data set [9] concerns the target T9, pol eta core C34W C34W (Homo sapiens) (UniProt Q9Y253).
T9 sequence: T1 sequence with C34W, G334R

[10] abbreviates: cis-syn cyclobutane thymine dimer at T7-T8 of the 25-mer template.

“CACCATCCACTAC / ATGTAGTTGTAGTGGATGGTGGTAC [13-FAM-mer/25-CTD-mer]”: the Kd was determined as 12 nM in data set [1] (setting [10]); 11 nM in data set [2] (setting [10]); 14 nM in data set [3] (setting [10]); 18 nM in [4] (setting [10]); 11 nM in data set [5] (setting [10]); 11 nM in data set [6] (setting [10]). Moreover, the figures for the Kd in data set [7] (setting [10]), in data set [8] (setting [10]) and in data set [9] (setting [10]) were 5.9 nM, 7 nM and 5.9 nM, respectively.
Consider “CACCATCCACTAC / ATGTAGTTGTAGTGGATGGTGGTAC [13-FAM-mer/25-TT-mer]”, for which the Kd in data set [1] was 11 nM; in data set [2] it was 8.5 nM; in [3], 10 nM; in [4], 9.5 nM; in data set [5], 10 nM; in [6], 8.4 nM. Besides, the Kd in data set [7] is 5 nM; in [8], 6.7 nM; in [9], 6.1 nM.
